Laboratory results: article PMC10849721 (bioRxiv, 2024)

B1: Kv5.1 (natural protein)
chain: MDASAEQSLPEPGSQDSVAGEDIEIVVNVGGVRQVLYGDLLSQYPETRLAELINCLAGGYDTIFSLCDDYDPGKREFYFDRDPDAFKCVIEVYYFGEVHMKKGICPICFKNEMDFWKVDLKFLDDCCKSHLSEKREELEEIARRVQLILDDLGVDAAEGRWRRCQKCVWKFLEKPESSCPARVVAVLSFLLILVSSVVMCMGTIPELQVVDSEGNRVEHPTLENVETACIGWFTLEYLLRLFSSPNKLHFALSFMNIVDVLAILPFYVSLTLTHLGARMMELTNVQQAVQALRIMRIARIFKLARHSSGLQTLTYALKRSFKELGLLLMYLAVGIFVFSALGYTMEQSHPETLFKSIPQSFWWAIITMTTVGYGDIYPKTTLGKLNAAISFLCGVIAIALPIHPIINNFVRYYNKQRVLETAAKHELELMELNSSSAEGKPGGSRSDLDTLPPEPAAREGPSWGSRLKLSHSDTFIPLLTEEKHHRTRLQSCK
B2: Kv2.2 (natural protein)
chain: MAEKAPPGLNRKTSRSTLSLPPEPVDIIRSKTCSRRVKINVGGLNHEVLWRTLDRLPRTRLGKLRDCNTHESLLEVCDDYNLNENEYFFDRHPGAFTSILNFYRTGKLHMMEEMCALSFGQELDYWGIDEIYLESCCQARYHQKKEQMNEELRREAETMREREGEEFDNTCCPEKRKKLWDLLEKPNSSVAAKILAIVSILFIVLSTIALSLNTLPELQENDEFGQPSDNRKLAHVEAVCIAWFTMEYLLRFLSSPNKWKFFKGPLNVIDLLAILPYYVTIFLTESNKSVLQFQNVRRVVQIFRIMRILRILKLARHSTGLQSLGFTLRRSYNELGLLILFLAMGIMIFSSLVFFAEKDEDATKFTSIPASFWWATITMTTVGYGDIYPKTLLGKIVGGLCCIAGVLVIALPIPIIVNNFSEFYKEQKRQEKAIKRREALERAKRNGSIVSMNLKDAFARSMELIDVAVEKAGESANTKDSVDDNHLSPSRWKWARKALSETSSNKSYENKYQEVSQNDSHEHLNNTSSSSPQHLSAQKLEMLYNEITKTQPHSHPNPDCQEQPERPCVYEEEIEMEEVICPQEQLAVAQTEVIVDMKSTSSIDSFTSCATDFTETERSPLPPPSASHLQMKFPTDLPGTDEHQRARAPPFLTLSRDKGPAAREAAVDYAPIDITVNLDAGASHGPLQPDSASDSPKSSLKGSNPLKSRSLKVNFQENRASAPQTPPSTARPLPVTTADFPLTTPQHMSTILLEEALPQGQPPLLEADDSAHCQGPSKGFSPRFPKQKLFPFSSRERRSFTEIDTGEDEDFLDLQRSRPDKQADPSPNCLADKPGDARDSLREEGCVGSSSPQNTDHNCRQDIYQAVGEVKKDSSQEGYKMENHLFAPEIHSNPGDTGHCPTRETSM

Tests used:
Kv2.2 = biological target: B2; test: co-IP
Kv5.1 = biological target: B1; test: co-IP

| percent co-IPed, relative to the subunit's own IP (Kv2.2) [%] | percent co-IPed, relative to the subunit's own IP (Kv5.1) [%] | Binder |
| --- | --- | --- |
| 31 |  | B1 |
|  | 7.4 | B2 |
